According to US20220204580A1 (AstraZeneca / MedImmune, published 2022):
Numbered stars: 1 amine (or outer) side, 2 acyl side, 3 side chain; on linkers, the order of the positions; unused ones are H or OH. Bridge positions count the residues as written; N and C are the ends. Square brackets hold non-standard residues; d marks the D form. Side chains are listed from the residue outwards. Ends that are not written are not given here. * marks the point of attachment. C18 diacid = O=C(O)CCCCCCCCCCCCCCCCC(=O)*; γGlu = O=C(O)[C@H](CCC(=O)[*:2])N[*:1]; αMeF = C[C@](N)(Cc1ccccc1)C(=O)O; Dab = NCC[C@H](N)C(=O)O; Aib = CC(C)(N)C(=O)O

B1: Peptide 32 (SEQ ID NO: 32) (peptide)
peptide: K([γGlu-C18 diacid])KCNTATCATQRLA[Dab]FLVHSSNN[αMeF]GPILPPTEVGSNTY-NH2
modifications: disulfide 3-8; N-terminus assumed
SMILES: CC[C@H](C)[C@H](NC(=O)[C@@H]1CCCN1C(=O)CNC(=O)[C@](C)(Cc1ccccc1)NC(=O)[C@H](CC(N)=O)NC(=O)[C@H](CC(N)=O)NC(=O)[C@H](CO)NC(=O)[C@H](CO)NC(=O)[C@H](Cc1c[nH]cn1)NC(=O)[C@@H](NC(=O)[C@H](CC(C)C)NC(=O)[C@H](Cc1ccccc1)NC(=O)[C@H](CCN)NC(=O)[C@H](C)NC(=O)[C@H](CC(C)C)NC(=O)[C@H](CCCNC(=N)N)NC(=O)[C@H](CCC(N)=O)NC(=O)[C@@H](NC(=O)[C@H](C)NC(=O)[C@@H]1CSSC[C@H](NC(=O)[C@H](CCCCN)NC(=O)[C@@H](N)CCCCNC(=O)CC[C@H](NC(=O)CCCCCCCCCCCCCCCCC(=O)O)C(=O)O)C(=O)N[C@@H](CC(N)=O)C(=O)N[C@@H]([C@@H](C)O)C(=O)N[C@@H](C)C(=O)N[C@@H]([C@@H](C)O)C(=O)N1)[C@@H](C)O)C(C)C)C(=O)N[C@@H](CC(C)C)C(=O)N1CCC[C@H]1C(=O)N1CCC[C@H]1C(=O)N[C@H](C(=O)N[C@@H](CCC(=O)O)C(=O)N[C@H](C(=O)NCC(=O)N[C@@H](CO)C(=O)N[C@@H](CC(N)=O)C(=O)N[C@H](C(=O)N[C@@H](Cc1ccc(O)cc1)C(N)=O)[C@@H](C)O)C(C)C)[C@@H](C)O
B2: Peptide 30 (SEQ ID NO: 30) (peptide)
peptide: K([γGlu-C18 diacid])KCNTATCATQRLANFL[Aib]HSS[Dab]NFGPILPPTEVGSNTY-NH2
modifications: disulfide 3-8; N-terminus assumed
SMILES: CC[C@H](C)[C@H](NC(=O)[C@@H]1CCCN1C(=O)CNC(=O)[C@H](Cc1ccccc1)NC(=O)[C@H](CC(N)=O)NC(=O)[C@H](CCN)NC(=O)[C@H](CO)NC(=O)[C@H](CO)NC(=O)[C@H](Cc1c[nH]cn1)NC(=O)C(C)(C)NC(=O)[C@H](CC(C)C)NC(=O)[C@H](Cc1ccccc1)NC(=O)[C@H](CC(N)=O)NC(=O)[C@H](C)NC(=O)[C@H](CC(C)C)NC(=O)[C@H](CCCNC(=N)N)NC(=O)[C@H](CCC(N)=O)NC(=O)[C@@H](NC(=O)[C@H](C)NC(=O)[C@@H]1CSSC[C@H](NC(=O)[C@H](CCCCN)NC(=O)[C@@H](N)CCCCNC(=O)CC[C@H](NC(=O)CCCCCCCCCCCCCCCCC(=O)O)C(=O)O)C(=O)N[C@@H](CC(N)=O)C(=O)N[C@@H]([C@@H](C)O)C(=O)N[C@@H](C)C(=O)N[C@@H]([C@@H](C)O)C(=O)N1)[C@@H](C)O)C(=O)N[C@@H](CC(C)C)C(=O)N1CCC[C@H]1C(=O)N1CCC[C@H]1C(=O)N[C@H](C(=O)N[C@@H](CCC(=O)O)C(=O)N[C@H](C(=O)NCC(=O)N[C@@H](CO)C(=O)N[C@@H](CC(N)=O)C(=O)N[C@H](C(=O)N[C@@H](Cc1ccc(O)cc1)C(N)=O)[C@@H](C)O)C(C)C)[C@@H](C)O
B3: Peptide 28 (SEQ ID NO: 28) (peptide)
peptide: K([γGlu-C18 diacid])KCNTATCATQRLANFLVHSS[Dab]NFGPILPPTEVGSNTY-NH2
modifications: disulfide 3-8; N-terminus assumed
SMILES: CC[C@H](C)[C@H](NC(=O)[C@@H]1CCCN1C(=O)CNC(=O)[C@H](Cc1ccccc1)NC(=O)[C@H](CC(N)=O)NC(=O)[C@H](CCN)NC(=O)[C@H](CO)NC(=O)[C@H](CO)NC(=O)[C@H](Cc1c[nH]cn1)NC(=O)[C@@H](NC(=O)[C@H](CC(C)C)NC(=O)[C@H](Cc1ccccc1)NC(=O)[C@H](CC(N)=O)NC(=O)[C@H](C)NC(=O)[C@H](CC(C)C)NC(=O)[C@H](CCCNC(=N)N)NC(=O)[C@H](CCC(N)=O)NC(=O)[C@@H](NC(=O)[C@H](C)NC(=O)[C@@H]1CSSC[C@H](NC(=O)[C@H](CCCCN)NC(=O)[C@@H](N)CCCCNC(=O)CC[C@H](NC(=O)CCCCCCCCCCCCCCCCC(=O)O)C(=O)O)C(=O)N[C@@H](CC(N)=O)C(=O)N[C@@H]([C@@H](C)O)C(=O)N[C@@H](C)C(=O)N[C@@H]([C@@H](C)O)C(=O)N1)[C@@H](C)O)C(C)C)C(=O)N[C@@H](CC(C)C)C(=O)N1CCC[C@H]1C(=O)N1CCC[C@H]1C(=O)N[C@H](C(=O)N[C@@H](CCC(=O)O)C(=O)N[C@H](C(=O)NCC(=O)N[C@@H](CO)C(=O)N[C@@H](CC(N)=O)C(=O)N[C@H](C(=O)N[C@@H](Cc1ccc(O)cc1)C(N)=O)[C@@H](C)O)C(C)C)[C@@H](C)O
B4: Peptide 27 (SEQ ID NO: 27) (peptide)
peptide: K([γGlu-γGlu-C18 diacid])CNIATCATQRLANFLVHSS[Dab]NFGPILPPTNVGSRTY-NH2
modifications: disulfide 2-7; N-terminus assumed
SMILES: CC[C@H](C)[C@@H]1NC(=O)[C@H](CC(N)=O)NC(=O)[C@@H](NC(=O)[C@@H](N)CCCCNC(=O)CC[C@H](NC(=O)CC[C@H](NC(=O)CCCCCCCCCCCCCCCCC(=O)O)C(=O)O)C(=O)O)CSSC[C@@H](C(=O)N[C@@H](C)C(=O)N[C@H](C(=O)N[C@@H](CCC(N)=O)C(=O)N[C@@H](CCCNC(=N)N)C(=O)N[C@@H](CC(C)C)C(=O)N[C@@H](C)C(=O)N[C@@H](CC(N)=O)C(=O)N[C@@H](Cc2ccccc2)C(=O)N[C@@H](CC(C)C)C(=O)N[C@H](C(=O)N[C@@H](Cc2c[nH]cn2)C(=O)N[C@@H](CO)C(=O)N[C@@H](CO)C(=O)N[C@@H](CCN)C(=O)N[C@@H](CC(N)=O)C(=O)N[C@@H](Cc2ccccc2)C(=O)NCC(=O)N2CCC[C@H]2C(=O)N[C@H](C(=O)N[C@@H](CC(C)C)C(=O)N2CCC[C@H]2C(=O)N2CCC[C@H]2C(=O)N[C@H](C(=O)N[C@@H](CC(N)=O)C(=O)N[C@H](C(=O)NCC(=O)N[C@@H](CO)C(=O)N[C@@H](CCCNC(=N)N)C(=O)N[C@H](C(=O)N[C@@H](Cc2ccc(O)cc2)C(N)=O)[C@@H](C)O)C(C)C)[C@@H](C)O)[C@@H](C)CC)C(C)C)[C@@H](C)O)NC(=O)[C@H]([C@@H](C)O)NC(=O)[C@H](C)NC1=O
B5: Peptide 29 (SEQ ID NO: 29) (peptide)
peptide: K([γGlu-C18 diacid])KCNTATCATQRLANFLVHSS[Dab]NFGPILPPTNVGSNTY-NH2
modifications: disulfide 3-8; N-terminus assumed
SMILES: CC[C@H](C)[C@H](NC(=O)[C@@H]1CCCN1C(=O)CNC(=O)[C@H](Cc1ccccc1)NC(=O)[C@H](CC(N)=O)NC(=O)[C@H](CCN)NC(=O)[C@H](CO)NC(=O)[C@H](CO)NC(=O)[C@H](Cc1c[nH]cn1)NC(=O)[C@@H](NC(=O)[C@H](CC(C)C)NC(=O)[C@H](Cc1ccccc1)NC(=O)[C@H](CC(N)=O)NC(=O)[C@H](C)NC(=O)[C@H](CC(C)C)NC(=O)[C@H](CCCNC(=N)N)NC(=O)[C@H](CCC(N)=O)NC(=O)[C@@H](NC(=O)[C@H](C)NC(=O)[C@@H]1CSSC[C@H](NC(=O)[C@H](CCCCN)NC(=O)[C@@H](N)CCCCNC(=O)CC[C@H](NC(=O)CCCCCCCCCCCCCCCCC(=O)O)C(=O)O)C(=O)N[C@@H](CC(N)=O)C(=O)N[C@@H]([C@@H](C)O)C(=O)N[C@@H](C)C(=O)N[C@@H]([C@@H](C)O)C(=O)N1)[C@@H](C)O)C(C)C)C(=O)N[C@@H](CC(C)C)C(=O)N1CCC[C@H]1C(=O)N1CCC[C@H]1C(=O)N[C@H](C(=O)N[C@@H](CC(N)=O)C(=O)N[C@H](C(=O)NCC(=O)N[C@@H](CO)C(=O)N[C@@H](CC(N)=O)C(=O)N[C@H](C(=O)N[C@@H](Cc1ccc(O)cc1)C(N)=O)[C@@H](C)O)C(C)C)[C@@H](C)O
B6: Peptide 31 (SEQ ID NO: 31) (peptide)
peptide: K([γGlu-C18 diacid])KCNTATCATQRLANFLVHSS[Dab]NFG[Aib]ILPPTNVGSNTY-NH2
modifications: disulfide 3-8; N-terminus assumed
SMILES: CC[C@H](C)[C@H](NC(=O)C(C)(C)NC(=O)CNC(=O)[C@H](Cc1ccccc1)NC(=O)[C@H](CC(N)=O)NC(=O)[C@H](CCN)NC(=O)[C@H](CO)NC(=O)[C@H](CO)NC(=O)[C@H](Cc1c[nH]cn1)NC(=O)[C@@H](NC(=O)[C@H](CC(C)C)NC(=O)[C@H](Cc1ccccc1)NC(=O)[C@H](CC(N)=O)NC(=O)[C@H](C)NC(=O)[C@H](CC(C)C)NC(=O)[C@H](CCCNC(=N)N)NC(=O)[C@H](CCC(N)=O)NC(=O)[C@@H](NC(=O)[C@H](C)NC(=O)[C@@H]1CSSC[C@H](NC(=O)[C@H](CCCCN)NC(=O)[C@@H](N)CCCCNC(=O)CC[C@H](NC(=O)CCCCCCCCCCCCCCCCC(=O)O)C(=O)O)C(=O)N[C@@H](CC(N)=O)C(=O)N[C@@H]([C@@H](C)O)C(=O)N[C@@H](C)C(=O)N[C@@H]([C@@H](C)O)C(=O)N1)[C@@H](C)O)C(C)C)C(=O)N[C@@H](CC(C)C)C(=O)N1CCC[C@H]1C(=O)N1CCC[C@H]1C(=O)N[C@H](C(=O)N[C@@H](CC(N)=O)C(=O)N[C@H](C(=O)NCC(=O)N[C@@H](CO)C(=O)N[C@@H](CC(N)=O)C(=O)N[C@H](C(=O)N[C@@H](Cc1ccc(O)cc1)C(N)=O)[C@@H](C)O)C(C)C)[C@@H](C)O

molecular target: T1, human calcitonin receptor (human, UniProt P30988 25-474); assay: cell-based or functional assay
T1 sequence (looked up): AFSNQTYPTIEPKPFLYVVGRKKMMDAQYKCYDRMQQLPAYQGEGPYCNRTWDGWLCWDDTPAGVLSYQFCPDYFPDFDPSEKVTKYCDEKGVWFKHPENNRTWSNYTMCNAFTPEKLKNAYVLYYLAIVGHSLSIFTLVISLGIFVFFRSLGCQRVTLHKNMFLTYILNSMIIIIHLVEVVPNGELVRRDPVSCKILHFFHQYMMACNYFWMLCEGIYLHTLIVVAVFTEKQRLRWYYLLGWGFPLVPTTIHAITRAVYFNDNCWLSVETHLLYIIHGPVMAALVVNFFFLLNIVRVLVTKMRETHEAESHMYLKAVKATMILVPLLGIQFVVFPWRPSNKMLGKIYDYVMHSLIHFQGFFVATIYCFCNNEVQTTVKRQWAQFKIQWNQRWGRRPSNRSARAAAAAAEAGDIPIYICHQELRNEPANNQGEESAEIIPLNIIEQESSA

Binder	EC50 (cAMP production) [nM]
B1	11.1
B2	10.5
B3	9.14
B4	0.731
B5	8.21
B6	1.28

molecular target: T2, human amylin receptor (calcitonin receptor co-expressed with receptor activity modifying protein, RAMP3) (human, UniProt P30988 25-474; O60896 24-148); assay: cell-based or functional assay
T2 sequence (looked up) 1: T1 sequence (looked up)
T2 sequence (looked up) 2: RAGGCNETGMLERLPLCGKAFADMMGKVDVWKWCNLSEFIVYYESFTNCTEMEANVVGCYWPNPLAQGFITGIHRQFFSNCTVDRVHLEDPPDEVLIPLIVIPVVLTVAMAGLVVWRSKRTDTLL

Binder	EC50 (cAMP production) [nM]	Ratio (EC50 hCTR / EC50 hAMYR3)
B1	0.742	15
B2	0.873	12
B3	0.39	23
B4	0.134	5
B5	0.243	34
B6	0.349	4
